± gives the uncertainty stated by the source.
B1: Histone H1t, residues 44 to 112; numbered along this chain, P22492 (parent)
chain: VSKLITEALSVSQERVGMSLVALKKALAAAGYDVEKNNSRIKLSLKSLVNKGILVQTRGTGASGSFKLS

Variants of: B1
Assay: abundance fitness (aPCA) (normalised: wild type 0, dead -1); higher = more abundant; growth selection in yeast, the domain comes from the species named
Settings: Homo sapiens

Which abundance fitness does the source give for VSKLITEALSVSQERVGMSLVALKKALAAAGYDVEKNNSRIKLSLKSLVNKGILDQTRGTGASGSFKLS [V55D] here?
Its abundance fitness is -0.291 ± 0.11.

Which abundance fitness does the source give for VSKLITEALSVSQERVGMSLVALKKALAAAGYDVEKNNSRIKLSLKSLVNKGILCQTRGTGASGSFKLS [V55C] here?
The abundance fitness was -0.077 ± 0.1.

Which abundance fitness does the source give for VSKLITEALSVSQERVGMSLVALKKALAAAGYDVEKNNSRIKLSLKSLVNKGILQQTRGTGASGSFKLS [V55Q] here?
The abundance fitness was -0.127 ± 0.056.

For VSKLITEALSVSQERVGMSLVALKKALAAAGYDVEKNNSRIKLSLKSLVNKGILMQTRGTGASGSFKLS [V55M], which abundance fitness is on record?
The abundance fitness was 0.002 ± 0.035.

For VSKLITEALSVSQERVGMSLVALKKALAAAGYDVEKNNSRIKLSLKSLVNKGILIQTRGTGASGSFKLS [V55I], which abundance fitness is on record?
The abundance fitness was -0.079 ± 0.049.

For VSKLITEALSVSQERVGMSLVALKKALAAAGYDVEKNNSRIKLSLKSLVNKGILHQTRGTGASGSFKLS [V55H], which abundance fitness is on record?
Its abundance fitness is -0.08 ± 0.1.

For VSKLITEALSVSQERVGMSLVALKKALAAAGYDVEKNNSRIKLSLKSLVNKGILEQTRGTGASGSFKLS [V55E], which abundance fitness is on record?
The abundance fitness was 0.027 ± 0.096.

Which abundance fitness does the source give for VSKLITEALSVSQERVGMSLVALKKALAAAGYDVEKNNSRIKLSLKSLVNKGILGQTRGTGASGSFKLS [V55G] here?
Its abundance fitness is 0.056 ± 0.069.

For VSKLITEALSVSQERVGMSLVALKKALAAAGYDVEKNNSRIKLSLKSLVNKGILAQTRGTGASGSFKLS [V55A], which abundance fitness is on record?
Its abundance fitness is -0.106 ± 0.064.

Which abundance fitness does the source give for VSKLITEALSVSQERVGMSLVALKKALAAAGYDVEKNNSRIKLSLKSLVNKGILSQTRGTGASGSFKLS [V55S] here?
The abundance fitness was 0.071 ± 0.038.

With VSKLITEALSVSQERVGMSLVALKKALAAAGYDVEKNNSRIKLSLKSLVNKGILLQTRGTGASGSFKLS [V55L] as the variant, how does the abundance fitness read?
The abundance fitness was -0.056 ± 0.028.

For VSKLITEALSVSQERVGMSLVALKKALAAAGYDVEKNNSRIKLSLKSLVNKGILNQTRGTGASGSFKLS [V55N], which abundance fitness is on record?
Its abundance fitness is -0.102 ± 0.079.

With VSKLITEALSVSQERVGMSLVALKKALAAAGYDVEKNNSRIKLSLKSLVNKGILPQTRGTGASGSFKLS [V55P] as the variant, how does the abundance fitness read?
Its abundance fitness is -0.163 ± 0.062.

For VSKLITEALSVSQERVGMSLVALKKALAAAGYDVEKNNSRIKLSLKSLVNKGILFQTRGTGASGSFKLS [V55F], which abundance fitness is on record?
The abundance fitness was -0.114 ± 0.036.

For VSKLITEALSVSQERVGMSLVALKKALAAAGYDVEKNNSRIKLSLKSLVNKGILTQTRGTGASGSFKLS [V55T], which abundance fitness is on record?
The abundance fitness was 0.062 ± 0.053.

Which abundance fitness does the source give for VSKLITEALSVSQERVGMSLVALKKALAAAGYDVEKNNSRIKLSLKSLVNKGIPVQTRGTGASGSFKLS [L54P] here?
The abundance fitness was -0.083 ± 0.08.

With VSKLITEALSVSQERVGMSLVALKKALAAAGYDVEKNNSRIKLSLKSLVNKGIFVQTRGTGASGSFKLS [L54F] as the variant, how does the abundance fitness read?
The abundance fitness was -0.036 ± 0.049.

For VSKLITEALSVSQERVGMSLVALKKALAAAGYDVEKNNSRIKLSLKSLVNKGISVQTRGTGASGSFKLS [L54S], which abundance fitness is on record?
Its abundance fitness is -0.047 ± 0.11.

With VSKLITEALSVSQERVGMSLVALKKALAAAGYDVEKNNSRIKLSLKSLVNKGIYVQTRGTGASGSFKLS [L54Y] as the variant, how does the abundance fitness read?
The abundance fitness was -0.311 ± 0.071.

With VSKLITEALSVSQERVGMSLVALKKALAAAGYDVEKNNSRIKLSLKSLVNKGINVQTRGTGASGSFKLS [L54N] as the variant, how does the abundance fitness read?
The abundance fitness was -0.249 ± 0.095.

For VSKLITEALSVSQERVGMSLVALKKALAAAGYDVEKNNSRIKLSLKSLVNKGIMVQTRGTGASGSFKLS [L54M], which abundance fitness is on record?
The abundance fitness was 0.062 ± 0.16.

With VSKLITEALSVSQERVGMSLVALKKALAAAGYDVEKNNSRIKLSLKSLVNKGITVQTRGTGASGSFKLS [L54T] as the variant, how does the abundance fitness read?
Its abundance fitness is -0.246 ± 0.1.

With VSKLITEALSVSQERVGMSLVALKKALAAAGYDVEKNNSRIKLSLKSLVNKGIAVQTRGTGASGSFKLS [L54A] as the variant, how does the abundance fitness read?
Its abundance fitness is -0.3 ± 0.25.

Which abundance fitness does the source give for VSKLITEALSVSQERVGMSLVALKKALAAAGYDVEKNNSRIKLSLKSLVNKGIIVQTRGTGASGSFKLS [L54I] here?
Its abundance fitness is 0.197 ± 0.094.

With VSKLITEALSVSQERVGMSLVALKKALAAAGYDVEKNNSRIKLSLKSLVNKGIVVQTRGTGASGSFKLS [L54V] as the variant, how does the abundance fitness read?
The abundance fitness was 0.158 ± 0.14.

Which abundance fitness does the source give for VSKLITEALSVSQERVGMSLVALKKALAAAGYDVEKNNSRIKLSLKSLVNKGIKVQTRGTGASGSFKLS [L54K] here?
The abundance fitness was -0.087 ± 0.14.

Which abundance fitness does the source give for VSKLITEALSVSQERVGMSLVALKKALAAAGYDVEKNNSRIKLSLKSLVNKGIHVQTRGTGASGSFKLS [L54H] here?
The abundance fitness was -0.325 ± 0.12.

For VSKLITEALSVSQERVGMSLVALKKALAAAGYDVEKNNSRIKLSLKSLVNKGIRVQTRGTGASGSFKLS [L54R], which abundance fitness is on record?
The abundance fitness was 0.168 ± 0.25.

For VSKLITEALSVSQERVGMSLVALKKALAAAGYDVEKNNSRIKLSLKSLVNKGIQVQTRGTGASGSFKLS [L54Q], which abundance fitness is on record?
Its abundance fitness is 0.092 ± 0.16.

Which abundance fitness does the source give for VSKLITEALSVSQERVGMSLVALKKALAAAGYDVEKNNSRIKLSLKSLVNKGWLVQTRGTGASGSFKLS [I53W] here?
The abundance fitness was -0.062 ± 0.075.

With VSKLITEALSVSQERVGMSLVALKKALAAAGYDVEKNNSRIKLSLKSLVNKGPLVQTRGTGASGSFKLS [I53P] as the variant, how does the abundance fitness read?
Its abundance fitness is -0.202 ± 0.041.

With VSKLITEALSVSQERVGMSLVALKKALAAAGYDVEKNNSRIKLSLKSLVNKGYLVQTRGTGASGSFKLS [I53Y] as the variant, how does the abundance fitness read?
The abundance fitness was -0.184 ± 0.056.

With VSKLITEALSVSQERVGMSLVALKKALAAAGYDVEKNNSRIKLSLKSLVNKGLLVQTRGTGASGSFKLS [I53L] as the variant, how does the abundance fitness read?
The abundance fitness was -0.067 ± 0.029.

For VSKLITEALSVSQERVGMSLVALKKALAAAGYDVEKNNSRIKLSLKSLVNKGQLVQTRGTGASGSFKLS [I53Q], which abundance fitness is on record?
Its abundance fitness is 0.033 ± 0.046.

With VSKLITEALSVSQERVGMSLVALKKALAAAGYDVEKNNSRIKLSLKSLVNKGRLVQTRGTGASGSFKLS [I53R] as the variant, how does the abundance fitness read?
The abundance fitness was -0.099 ± 0.068.

With VSKLITEALSVSQERVGMSLVALKKALAAAGYDVEKNNSRIKLSLKSLVNKGSLVQTRGTGASGSFKLS [I53S] as the variant, how does the abundance fitness read?
Its abundance fitness is -0.081 ± 0.038.

For VSKLITEALSVSQERVGMSLVALKKALAAAGYDVEKNNSRIKLSLKSLVNKGTLVQTRGTGASGSFKLS [I53T], which abundance fitness is on record?
The abundance fitness was -0.082 ± 0.058.

For VSKLITEALSVSQERVGMSLVALKKALAAAGYDVEKNNSRIKLSLKSLVNKGMLVQTRGTGASGSFKLS [I53M], which abundance fitness is on record?
Its abundance fitness is -0.054 ± 0.048.

With VSKLITEALSVSQERVGMSLVALKKALAAAGYDVEKNNSRIKLSLKSLVNKGVLVQTRGTGASGSFKLS [I53V] as the variant, how does the abundance fitness read?
Its abundance fitness is -0.025 ± 0.045.

Reference: the Human Domainome abundance scans (Beltran et al. 2025)
